Source: article PMC8219737, “Direct activation of the proton channel by albumin leads to human sperm capacitation and sustained release of inflammatory mediators by neutrophils” (Nature Communications, 2021)

Target: the molecule itself
Test: smTIRF single-molecule photobleaching (subunit counting); hHv1-G199L-TFP particles at the surface of live HEK293T cells; bleaching steps of TFP counted

B1: hHv1-G199L-TFP (natural protein, human, UniProt Q96D96-1 1-273, looked up)
chain: MATWDEKAVTRRAKVAPAERMSKFLRHFTVVGDDYHAWNINYKKWENEEEEEEEEQPPPTPVSGEEGRAAAPDVAPAPGPAPRAPLDFRGMLRKLFSSHRFQVIIICLVVLDALLVLAELILDLKIIQPDKNNYAAMVFHYMSITILVFFMMEIIFKLFVFRLEFFHHKFEILDAVVVVVSFILDIVLLFQEHQFEALLLLILLRLWRVARIINGIIISVKTRSERQLLRLKQMNVQLAAKIQHLEFSCSEKEQEIERLNKLLRQHGLLGEVN
notes: also used for the patch-clamp (functional) rows of hHv1-G199L; source: HEK293T, transfected, on live cells; not shown: teal fluorescent protein (TFP, via a 13-residue linker), C-terminal, kept
With B1 the “stoichiometry N” value was 2 subunits per particle.
